# Assay results taken from paper PMC12443467, “A phosphoserine phosphatase variant present in the brain of Alzheimer's disease patients favors nuclear mistargeting” (The Febs Journal, 2025).
# Substitutions are numbered along the chain they refer to. Numbers in names are those of the source.
# T1: wtPSP (human phosphoserine phosphatase, PSP) (Homo sapiens, UniProt P78330)
# T1 construct: gene PSPH; recombinant human PSP with His-tag, plasmid pET28_hPSP, E. coli BL21(DE3), Talon purification, homodimer (54 kDa expected; 53 kDa by SEC)
# T1 sequence (P78330 1-225): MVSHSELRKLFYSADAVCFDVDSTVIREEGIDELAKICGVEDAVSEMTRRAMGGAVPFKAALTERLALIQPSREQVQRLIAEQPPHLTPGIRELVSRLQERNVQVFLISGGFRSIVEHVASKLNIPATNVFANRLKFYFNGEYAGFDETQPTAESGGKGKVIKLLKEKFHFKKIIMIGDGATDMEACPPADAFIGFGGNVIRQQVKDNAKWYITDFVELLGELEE
# T2: wtPSP (human phosphoserine phosphatase, PSP) (Homo sapiens, UniProt P78330, D32G)
# T2 construct: gene PSPH; recombinant human PSP with His-tag, plasmid pET28_hPSP, E. coli BL21(DE3), Talon purification, homodimer (54 kDa expected; 53 kDa by SEC)
# T2 sequence (P78330 1-225 D32G): T1 sequence (P78330 1-225) with D32G
# T3: wtPSP (human phosphoserine phosphatase, PSP) (Homo sapiens, UniProt P78330, R27S)
# T3 construct: gene PSPH; recombinant human PSP with His-tag, plasmid pET28_hPSP, E. coli BL21(DE3), Talon purification, homodimer (54 kDa expected; 53 kDa by SEC)
# T3 sequence (P78330 1-225 R27S): T1 sequence (P78330 1-225) with R27S
# T4: wtPSP (human phosphoserine phosphatase, PSP) (Homo sapiens, UniProt P78330, D32G/R27S)
# T4 construct: gene PSPH; recombinant human PSP with His-tag, plasmid pET28_hPSP, E. coli BL21(DE3), Talon purification, homodimer (54 kDa expected; 53 kDa by SEC)
# T4 sequence (P78330 1-225 R27S/D32G): T1 sequence (P78330 1-225) with R27S, D32G
# B1: wtPSP (human phosphoserine phosphatase, PSP) (Homo sapiens; R27S) (protein)
# chain: T1 sequence (P78330 1-225) with R27S
# notes: recombinant human PSP with His-tag, plasmid pET28_hPSP, E. coli BL21(DE3), Talon purification, homodimer (54 kDa expected; 53 kDa by SEC)
# B2: wtPSP (human phosphoserine phosphatase, PSP) (Homo sapiens; D32G) (protein)
# chain: T1 sequence (P78330 1-225) with D32G
# notes: as for B1
# B3: wtPSP (human phosphoserine phosphatase, PSP) (Homo sapiens; D32G/R27S) (protein)
# chain: T1 sequence (P78330 1-225) with R27S, D32G
# notes: as for B1
# Key:
# [1] = biological target: T1, wtPSP (human phosphoserine phosphatase, PSP); assay: SAT-coupled continuous assay of L-Ser production (DTNB, […] nm type read-out); assay type: biochemical; settings: 3 mM MgCl2, 50 mM Hepes, 100 mM KCl, pH 7, 37 °C; 12 nM enzyme
# [2] = biological target: T2, wtPSP (human phosphoserine phosphatase, PSP); assay: PNP-coupled phosphate release assay; assay type: biochemical
# Text: (§1) PNP-coupled phosphate release assay on wtPSP (human phosphoserine phosphatase, PSP)
# [3] = biological target: T3, wtPSP (human phosphoserine phosphatase, PSP); assay: PNP-coupled phosphate release assay; assay type: biochemical
# Text: as §1
# [4] = biological target: T1, wtPSP (human phosphoserine phosphatase, PSP); assay: PNP-coupled phosphate release assay; assay type: biochemical
# Text: as §1
# [5] = biological target: T4, wtPSP (human phosphoserine phosphatase, PSP); assay: PNP-coupled phosphate release assay; assay type: biochemical
# Text: as §1
# [6] = substrate: N[C@@H](COP(=O)(O)O)C(=O)O; assay: SAT-coupled continuous assay of L-Ser production; assay type: biochemical, Homo sapiens; settings: 3 mM MgCl2, 50 mM Hepes, 100 mM KCl, pH 7, 37 °C
# Text: SAT-coupled continuous assay of L-Ser production on wtPSP (human phosphoserine phosphatase, PSP)
molecule,measurement,setting,value
N[C@@H](COP(=O)(O)O)C(=O)O [3-PS],Km,[1],42 ± 12 µM
N[C@@H](CO)C(=O)O [L-Ser],IC50,[2],746 ± 26 µM
same,IC50,[3],171 ± 15 µM
same,IC50,[4],273 ± 31 µM
same,IC50,[5],523 ± 74 µM
B1,Km,[6]; 12 nM enzyme,50 ± 3 µM
same,kcat,[6]; 12 nM enzyme,39 ± 1 s⁻¹
same,kcat/Km,[6]; 12 nM enzyme,780000 M⁻¹ s⁻¹
B2,Km,[6]; 180 nM enzyme,53 ± 5 µM
same,kcat,[6]; 180 nM enzyme,2.3 ± 0.1 s⁻¹
same,kcat/Km,[6]; 180 nM enzyme,43400 M⁻¹ s⁻¹
B3,Km,[6]; 180 nM enzyme,75 ± 12 µM
same,kcat,[6]; 180 nM enzyme,2.2 ± 0.1 s⁻¹
same,kcat/Km,[6]; 180 nM enzyme,29300 M⁻¹ s⁻¹
